The source of these data is patent US20240199762A1 (PHILOGEN S P A, published 2024).

Assay [1] deals with T1, human FAP expressed on transduced cells (SKRC52-hFAP, HT-1080-hFAP) (human, UniProt Q12884 1-760).
T1 construct: whole, on cells; Also the target in SKRC52-hFAP tumor cryosections and in tumors of tumor-bearing mice; also called cell-expressed human FAP
T1 sequence (looked up): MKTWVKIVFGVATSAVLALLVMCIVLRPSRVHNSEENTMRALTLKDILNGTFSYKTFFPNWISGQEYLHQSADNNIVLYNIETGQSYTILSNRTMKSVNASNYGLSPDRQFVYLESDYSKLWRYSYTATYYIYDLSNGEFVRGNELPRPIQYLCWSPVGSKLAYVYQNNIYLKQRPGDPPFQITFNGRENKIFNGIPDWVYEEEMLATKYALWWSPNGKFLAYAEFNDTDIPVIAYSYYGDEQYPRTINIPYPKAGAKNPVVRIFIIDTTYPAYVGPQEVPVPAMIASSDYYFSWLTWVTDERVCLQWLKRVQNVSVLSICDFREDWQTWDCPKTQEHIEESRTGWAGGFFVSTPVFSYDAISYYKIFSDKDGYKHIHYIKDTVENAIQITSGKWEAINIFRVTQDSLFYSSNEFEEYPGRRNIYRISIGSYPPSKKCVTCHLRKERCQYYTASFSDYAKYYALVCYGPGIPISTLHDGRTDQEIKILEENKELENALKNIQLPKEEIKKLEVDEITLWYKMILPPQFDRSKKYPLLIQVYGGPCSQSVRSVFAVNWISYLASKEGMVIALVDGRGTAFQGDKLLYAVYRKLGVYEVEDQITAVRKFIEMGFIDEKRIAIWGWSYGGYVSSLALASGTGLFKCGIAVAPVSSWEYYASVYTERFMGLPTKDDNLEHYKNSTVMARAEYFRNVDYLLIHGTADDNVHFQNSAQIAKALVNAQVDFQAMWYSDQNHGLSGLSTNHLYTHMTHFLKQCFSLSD
The assay is described as follows: immunofluorescence on SKRC52-hFAP tumor cryosections, FITC conjugate. On the procedure: Immunofluorescence experiments were performed with 7NP2 and KSF (negative control), both in IgG1 format on cryosections of renal cell carcinoma SKRC52-hFAP tumor tissue slides, which were transduced to express human FAP. The 7NP2 and KSF IgG1 molecules were conjugated to FITC to allow detection. Cryostat sections (10 μm) were stained using the 7NP2 and KSF IgG1 conjugates at a final concentration of 10 μg/mL and detected with rabbit anti-FITC and goat anti-rabbit AlexaFluor488 antibody. Slides were mounted with fluorescent mounting medium and analyzed with a microscope (FIG. 5).

Assay [2] addresses T2, human FAP-ECD (extracellular domain) recombinant fragment containing a C-terminal His6 tag (human, UniProt Q12884 26-760, randomly biotinylated with NHS ester-activated biotin (as used on the SA chip and Streptawell plates)).
T2 construct: also called biotinylated human FAP-ECD; biotinylated human FAP
T2 sequence: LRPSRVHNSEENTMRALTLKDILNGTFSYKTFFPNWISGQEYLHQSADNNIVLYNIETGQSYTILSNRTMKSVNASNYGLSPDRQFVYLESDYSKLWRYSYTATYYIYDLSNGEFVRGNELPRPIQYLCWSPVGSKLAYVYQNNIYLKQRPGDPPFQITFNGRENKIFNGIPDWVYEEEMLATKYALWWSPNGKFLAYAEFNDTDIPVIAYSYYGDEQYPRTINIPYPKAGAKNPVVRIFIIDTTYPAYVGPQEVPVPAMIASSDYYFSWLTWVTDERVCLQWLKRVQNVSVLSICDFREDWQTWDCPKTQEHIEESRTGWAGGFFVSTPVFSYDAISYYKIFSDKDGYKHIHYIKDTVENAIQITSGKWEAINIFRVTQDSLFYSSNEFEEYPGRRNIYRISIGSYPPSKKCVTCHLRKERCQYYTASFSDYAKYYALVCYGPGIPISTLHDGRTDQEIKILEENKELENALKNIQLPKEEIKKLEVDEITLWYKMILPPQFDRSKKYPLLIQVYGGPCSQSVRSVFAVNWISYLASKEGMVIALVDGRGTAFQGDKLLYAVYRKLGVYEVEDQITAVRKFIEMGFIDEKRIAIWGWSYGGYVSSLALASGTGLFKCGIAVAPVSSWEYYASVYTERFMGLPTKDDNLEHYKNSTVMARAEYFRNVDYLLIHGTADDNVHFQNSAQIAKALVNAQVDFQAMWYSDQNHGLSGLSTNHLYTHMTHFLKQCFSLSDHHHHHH
The experiment in a line: epitope ELISA on biotinylated human FAP, co-incubated with C5 IgG2a, 5 ug/mL. On the procedure: To evaluate binding, 100 nM of biotinylated human FAP were coated on Streptawell plates for 30 min at 37° C.
The C5 antibody in IgG2a format was incubated together with the 7NP2 antibody in IgG1 format, the F5 antibody in IgG1 format (WO2016/116399), the ESC11 antibody in IgG1 format (Fisher et al., (2012) Clin Cancer Res; 18(22)), or the (negative control) antibody KSF in IgG1 format for 1.5 h at room temperature at a concentration of 5 μg/mL in the antigen-coated wells. After 3 washes with PBS, binding of the antibodies to human FAP was detected using anti-human or anti-murine HRP conjugates (FIG. 7).

B1: anti-hen egg lysozyme antibody KSF in IgG1 format (antibody, V domains shown)
VH: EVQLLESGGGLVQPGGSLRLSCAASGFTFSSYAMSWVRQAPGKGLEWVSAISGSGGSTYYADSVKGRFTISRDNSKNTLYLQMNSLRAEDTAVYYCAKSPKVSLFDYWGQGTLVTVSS
VL: SSELTQDPAVSVALGQTVRITCQGDSLRSYYASWYQQKPGQAPVLVIYGKNNRPSGIPDRFSGSSSGNTASLTITGAQAEDEADYYCQSSPLNRLAVVFGGGTKLTVLG
notes: Negative control; It was conjugated to FITC in the immunofluorescence and ex vivo experiments; also called KSF IgG1; KSF(IgG1)
As for B1, the binding result in assay [1] is on record as “no binding (tested: 10 µg/mL)”.

B2: anti-FAP antibody 7NP2 in IgG1 format (antibody, V domains shown)
VH: EVQLLESGGGLVQPGGSLRLSCAASGFTFSSYAMSWVRQAPGKGLEWVSAIGSVGGPTYYADSVKGRFTISRDNSKNTLYLQMNSLRAEDTAVYYCAKRLAWFDYWGQGTLVTVSS
VL: EIVLTQSPGTLSLSPGERATLSCRASQSVSSSYLAWYQQKPGQAPRLLIYGASSRATGIPDRFSGSGSGTDFTLTISRLEPEDFAVYYCQQSGKGPLTFGQGTKVEIKR
notes: also called 7NP2 IgG1; 7NP2(IgG1)
For the molecule B2, in assay [2], the binding result is on record as “binds”.
